What follows are substances tested against Soluble rat tail collagen Type I (UniProt P02454).

Histidine (His)-tagged purified recombinant human cathepsin-L (R&D Systems, Cat# 952-CY), sequence (chain, as listed by the source): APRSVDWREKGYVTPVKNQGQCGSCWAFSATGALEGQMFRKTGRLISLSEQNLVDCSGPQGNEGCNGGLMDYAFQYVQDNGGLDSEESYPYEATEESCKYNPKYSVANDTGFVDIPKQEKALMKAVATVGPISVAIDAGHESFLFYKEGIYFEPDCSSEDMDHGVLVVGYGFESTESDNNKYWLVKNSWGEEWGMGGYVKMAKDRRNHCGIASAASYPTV
cathepsin D (R&D systems, activated), sequence (chain, as listed by the source): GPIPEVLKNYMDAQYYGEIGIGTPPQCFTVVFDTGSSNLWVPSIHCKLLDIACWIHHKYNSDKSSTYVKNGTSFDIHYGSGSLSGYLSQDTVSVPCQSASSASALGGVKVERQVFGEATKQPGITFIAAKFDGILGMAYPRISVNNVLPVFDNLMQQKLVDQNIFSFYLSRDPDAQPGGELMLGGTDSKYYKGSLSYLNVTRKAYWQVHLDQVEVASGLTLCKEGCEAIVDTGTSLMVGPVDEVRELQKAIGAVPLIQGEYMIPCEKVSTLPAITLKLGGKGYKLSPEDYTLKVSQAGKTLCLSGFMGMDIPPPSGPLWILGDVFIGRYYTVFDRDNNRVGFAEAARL

| Substance | degradation of soluble rat tail collagen Type I (1 hour at 37° C., SDS-Page gels, Coomassie Blue staining) |
| --- | --- |
| Bacterial collagenase (Sigma Chemicals) | bacterial collagenase degraded rat collagen at both pH 5.0 and pH 8.0 |
| Histidine (His)-tagged purified recombinant human cathepsin-L (R&D Systems, Cat# 952-CY) | cathepsin-L was the only enzyme that was active at pH 5.0, but not at pH 8.0 |
| cathepsin B (R&D systems, activated) | Cathepsins B, D and S showed some slight degradation of rat collagen at the manufacture specified pH and no degradation of rat collagen at pH 8.0 |
| cathepsin D (R&D systems, activated) | Cathepsins B, D and S showed some slight degradation of rat collagen at the manufacture specified pH and no degradation of rat collagen at pH 8.0 |
